Assay results from publication PMC8170886.

Target: bacteriophage P22 coat protein (bacteriophage P22) (UniProt P26747)
Assay: densitometry of SDS-PAGE of the purified particles; purified ASNase-P22 nanoreactors from different chromatograms, bands quantified with ImageJ; numbers per capsid calculated on 420 CP

ASNase-SP chimeric protein (E. coli asparaginase II fused to the bacteriophage P22 scaffold protein) (from UniProt P00805 23-348) (enzyme)
ASNase-SP tetramers per capsid of 420 CP (tetramers per capsid): 110 | monomers per capsid (monomers per capsid): 448 | percent ASNase-SP in the nanoreactor's protein (densitometry): 41.6% | percent CP in the nanoreactor's protein (densitometry): 58.4%
